The values below come from patent US20140274782A1 (Stanford University, published 2014).

Assay in all cases: ProtoArray, GST-treated control array;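 also: human protein microarray (about 9500 recombinant proteins) incubated overnight with GST alone plus SAM cofactor as the negative control for G9a SET domain methylation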
For test [1], the target named is T1, CCL24-C-C motif chemokine 24 (human, UniProt O00175 27-119, limits assumed).
T1 sequence (looked up): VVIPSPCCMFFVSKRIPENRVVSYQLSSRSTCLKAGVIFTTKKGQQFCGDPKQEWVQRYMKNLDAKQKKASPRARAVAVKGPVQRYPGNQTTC

Test [2] has as its target T2, SSR4-signal sequence receptor, delta (translocon-associated protein delta) (SSR4) (human, UniProt P51571 24-173, limits assumed).
T2 sequence (looked up): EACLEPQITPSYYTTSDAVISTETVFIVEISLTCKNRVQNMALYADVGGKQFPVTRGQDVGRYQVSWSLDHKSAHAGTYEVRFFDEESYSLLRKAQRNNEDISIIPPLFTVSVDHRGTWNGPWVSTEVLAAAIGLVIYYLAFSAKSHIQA

Test [3] concerns the target T3, LYRM7-Lyrm7 homolog (mouse) (LYRM7) (human, UniProt Q5U5X0 1-104).
T3 sequence (looked up): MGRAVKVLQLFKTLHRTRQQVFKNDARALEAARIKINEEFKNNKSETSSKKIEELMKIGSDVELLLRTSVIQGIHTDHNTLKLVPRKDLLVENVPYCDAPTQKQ

Test [4] has as its target T4, GNPTAB-N-acetylglucosamine-1-phosphate transferase, alpha and beta subunits (GNPTAB) (human, UniProt Q3T906 1-1256, limits assumed).
T4 sequence (looked up): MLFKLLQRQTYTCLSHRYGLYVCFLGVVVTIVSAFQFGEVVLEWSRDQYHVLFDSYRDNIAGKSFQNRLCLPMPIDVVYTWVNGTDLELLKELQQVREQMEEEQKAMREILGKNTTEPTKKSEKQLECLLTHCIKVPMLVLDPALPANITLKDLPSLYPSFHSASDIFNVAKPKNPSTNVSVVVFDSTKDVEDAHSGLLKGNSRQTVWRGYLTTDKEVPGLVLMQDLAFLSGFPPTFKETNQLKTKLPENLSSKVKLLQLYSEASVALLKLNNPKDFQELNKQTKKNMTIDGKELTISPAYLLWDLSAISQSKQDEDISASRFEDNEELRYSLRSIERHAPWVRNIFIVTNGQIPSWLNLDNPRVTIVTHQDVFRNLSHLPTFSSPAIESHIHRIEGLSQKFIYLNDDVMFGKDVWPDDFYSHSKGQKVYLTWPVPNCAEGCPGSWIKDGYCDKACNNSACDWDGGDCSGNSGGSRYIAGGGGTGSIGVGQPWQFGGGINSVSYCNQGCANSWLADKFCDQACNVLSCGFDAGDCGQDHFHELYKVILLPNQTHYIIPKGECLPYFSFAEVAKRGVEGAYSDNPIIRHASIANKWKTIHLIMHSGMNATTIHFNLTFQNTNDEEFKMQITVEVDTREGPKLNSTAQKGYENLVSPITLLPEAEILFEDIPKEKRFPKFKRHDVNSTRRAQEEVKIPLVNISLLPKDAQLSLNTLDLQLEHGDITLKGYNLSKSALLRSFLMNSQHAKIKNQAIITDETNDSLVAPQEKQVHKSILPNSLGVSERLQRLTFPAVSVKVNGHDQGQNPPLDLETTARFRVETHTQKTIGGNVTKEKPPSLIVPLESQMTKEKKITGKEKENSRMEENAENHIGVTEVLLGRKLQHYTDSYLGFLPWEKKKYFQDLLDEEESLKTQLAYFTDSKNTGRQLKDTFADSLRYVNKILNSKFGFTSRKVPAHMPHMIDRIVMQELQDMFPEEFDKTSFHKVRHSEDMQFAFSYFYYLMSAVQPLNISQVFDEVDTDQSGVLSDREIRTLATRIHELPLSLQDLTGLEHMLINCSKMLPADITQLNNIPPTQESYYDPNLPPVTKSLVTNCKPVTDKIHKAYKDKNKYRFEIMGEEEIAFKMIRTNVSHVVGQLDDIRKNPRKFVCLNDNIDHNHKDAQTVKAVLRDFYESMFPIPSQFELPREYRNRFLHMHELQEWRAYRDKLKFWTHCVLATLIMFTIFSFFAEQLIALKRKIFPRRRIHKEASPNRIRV

For test [5], the target named is HPCAL4-hippocalcin like 4 (HPCAL4) (human, UniProt Q9UM19 1-191).
Sequence of HPCAL4-hippocalcin like 4 (HPCAL4) (Q9UM19 whole entry): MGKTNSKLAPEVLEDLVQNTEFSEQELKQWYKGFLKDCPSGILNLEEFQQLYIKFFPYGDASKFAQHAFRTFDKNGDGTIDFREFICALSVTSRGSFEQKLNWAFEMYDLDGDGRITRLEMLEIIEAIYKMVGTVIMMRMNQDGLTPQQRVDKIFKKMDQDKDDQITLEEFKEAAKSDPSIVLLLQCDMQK
Test [6] concerns the target MGC4473-hypothetical protein MGC4473 (MGC4473) (human).
Test [7] addresses T5, STK17B-Serine/threonine-protein kinase 17B (human, UniProt O94768 1-372).
T5 sequence (looked up): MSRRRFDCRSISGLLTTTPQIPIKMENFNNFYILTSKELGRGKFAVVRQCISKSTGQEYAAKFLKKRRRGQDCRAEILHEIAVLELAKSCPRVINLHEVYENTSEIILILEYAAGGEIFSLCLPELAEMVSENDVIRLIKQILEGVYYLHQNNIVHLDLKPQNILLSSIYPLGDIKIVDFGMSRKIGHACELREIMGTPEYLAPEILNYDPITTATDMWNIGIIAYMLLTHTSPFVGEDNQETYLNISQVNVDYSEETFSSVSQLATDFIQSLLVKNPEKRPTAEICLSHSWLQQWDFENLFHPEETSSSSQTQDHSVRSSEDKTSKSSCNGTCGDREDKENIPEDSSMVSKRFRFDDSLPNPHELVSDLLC

Test [8] deals with T6, RAB7B-RAB7B, member RAS oncogene family (RAB7B) (human, UniProt Q96AH8 1-199).
T6 sequence (looked up): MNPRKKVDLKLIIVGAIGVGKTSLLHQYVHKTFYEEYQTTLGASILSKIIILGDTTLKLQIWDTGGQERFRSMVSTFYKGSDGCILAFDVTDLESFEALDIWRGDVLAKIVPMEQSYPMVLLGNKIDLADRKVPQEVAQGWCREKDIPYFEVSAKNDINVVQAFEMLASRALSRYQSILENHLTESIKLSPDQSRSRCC

Test [9] addresses T7, BLCAP-bladder cancer associated protein (BLCAP) (human, UniProt P62952 1-87).
T7 sequence (looked up): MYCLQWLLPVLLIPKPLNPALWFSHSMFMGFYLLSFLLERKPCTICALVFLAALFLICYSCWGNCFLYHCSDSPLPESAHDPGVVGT

B1: 3× Flag-3×MBT (designed binder)
chain: EEWSSSQPATGEKKECWSWESYLEEQKAITAPVSLFQDSQAVTHNKNGFKLGMKLEGIDPQHPSMYFILTVAEVCGYRLRLHFDGYSECHDFWVNANSPDIHPAGWFEKTGHKLQPPKGYKEEEFSWSQYLRSTRAQAAPKHLFVSQSHSPPPLGFQVGMKLEAVDRMNPSLVCVASVTDVVDSRFLVHFDNWDDTYDYWCDPSSPYIHPVGWCQKQGKPLTPPQDYPDPDNFCWEKYLEETGASAVPTWAFKVRPPHSFLVNMKLEAVDRRNPALIRVASVEDVEDHRIKIHFDGWSHGYDFWIDADHPDIHPAGWCSKTGHPLQPPLGPREPSSASPGG
notes: also called Flag-tagged 3×MBT; 3xFlag-3xMBT; not shown: made by PreScission cleavage of GST-3× Flag-3×MBT
Turning to B1, the “GST Average SNR” value was 0.109 in test [1]; 1.33 in test [2]; 0.278 in [3]; 1.15 in test [4]; -0.871 in test [5]; 0.0125 in test [6]. Further, the “GST Average SNR” value in [7] is 0.575; in [8], -0.309; in [9], 0.932.
